The series is described as follows: yeast display, Sf9 membrane polyspecificity reagent, FACS + sequencing; frameworks hold sequencing errors. The procedure, abridged:
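Sorting gates, low and high (top ~1%), were placed on anti-HA fluorescence to track expression and on streptavidin fluorescence to track reagent binding. A clone's polyreactivity label is taken from the gate it came out of. The reagent was 10% biotinylated, detergent-solubilized Sf9 membrane, applied for 1 hour at 4 °C to galactose-induced yeast display cells.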
Take “QVQLVESGGGLVQAGGSLRVSCAASGSIFSIYAMGWYRQAPGKERELVASITRSSGRTYYADSVKGRFTISRDNAKKTVYLQMNSLKPEDTAVYYCAKDYIPLALDADDYWGQGTQVSVSS”: the “polyreactivity (PSR sort gate)” value is given as “low polyreactivity”.

Regarding “QVQLVESGGGLVQAGGSLRVSCAASGSTFDPNAMGWYRQATGKERELVADIDSGGSTYYADSVKGRFTISRDNAKNTVYLQMNSMKPEDTAVYYCATKQPTWVPRVIISYTKFDYWGQGTQVTVSS”, the “polyreactivity (PSR sort gate)” value is recorded as “low polyreactivity”.

Regarding “QVQLVESGGGLVQAGGSLRVSCAASGSTFDVNAMGWYRQAPGKERELVAVITSGGSTNYADSVKGRFTISRDNAKNSVYLQMNSLKPEATAVYYCAKDSRTLYDYWGQGTQVTVSS”, the “polyreactivity (PSR sort gate)” value is listed as “low polyreactivity”.

For “QVQLVESGGGLVQAGGSLRVSCAASGSTFILNAMGWYRQAPGKERELVATISSSDTSTYYADSVKGRFTISRDHAKNTVYLQMNSMKPEDTAVYYCNADYYTTAYLQRVYHYGVEYDYWGQVTQVTVSS”, the “polyreactivity (PSR sort gate)” value is reported as “low polyreactivity”.

Turning to “QVQLVESGGGLVQAGGSLRVSCAASGSTFYYYAMGGYSQAPGKERELVAAISSRGGSTYYADSVKGRFRISRDNAKNTVYLQMNSLKPEDTAVYYCAASSQRISPDHDYWGQGTQVTVSS”, the “polyreactivity (PSR sort gate)” value was “high polyreactivity”.

In the case of “QVQLVESGGGLVQAGGSLRYSCAASGLIFQHNALGWYRPAPGKERELVAAISGSGGSTYYADSVKGRFTISRDNAKNTVYLQMNSLKPEDTAVYYCATDDRYYRRYYWGQGTQVTVAS”, the “polyreactivity (PSR sort gate)” value was “high polyreactivity”.

In the case of “QVQLVESGGGLVQAGGSLSFSCAAPGSIFPRYAMGWYRQAPGKERELVAAISRSGGSTYYADSVKGRFTISRDNAKNSVYLQMNSLKPEDTAVYYCATDKVSHRRYDYWGQGTQVTVSS”, the “polyreactivity (PSR sort gate)” value is “high polyreactivity”.

Turning to “QVQLVESGGGLVQAGGSLSFSCAASGFIFRAYTMGWYRQAPGKERELVAAITSSGGRTYYADSVKGRFTISRDNAKNSVYLQMNSLKPEDTAVYYCATVYAKWKQFDYWGQGTQVTVSS”, the “polyreactivity (PSR sort gate)” value was “high polyreactivity”.

Regarding “QVQLVESGGGLVQAGGSLSISCAASDLPGLCYGWYRQAPGKERELVAAMTSNGGSTYYADSVKGRFTISRDNAKITVYLQMNSLKPEDTAVYYCATEHHTVQVYDYWGQGTQVTVSS”, the “polyreactivity (PSR sort gate)” value is on record as “low polyreactivity”.

As for “QVQLVESGGGLVQAGGSLSLICAASGGTFYKYAMGWYRQAPGKERELDAAISRSGGSTYYADSVKGRFTISRDNAKNTVYLQINRLKPEDTAVYYCKAYGSYWDFDYWGQRTQVTVSS”, the “polyreactivity (PSR sort gate)” value was “high polyreactivity”.

In the case of “QVQLVESGGGLVQAGGSLSLICAASGSIFTRNAMGWYRQAPGKERELVAAISRRGVSTYYADSVKGRFTNSRDNAKNTVYLQMNSLKPEDTAVYYCNKLSSYVVARRTTEYDYWGQGTQVTVSS”, the “polyreactivity (PSR sort gate)” value is “high polyreactivity”.

With “QVQLVESGGGLVQAGGSLSLICAASGYTLKYYAMGWYRQAPGKERELVAVISRGGSTYYADSVKGRFTISRDNAKNTVYLQMNSLNPEDTAVYYCAKRPTQGYYPYGYWGQGTQVTVSS”, the “polyreactivity (PSR sort gate)” value is recorded as “high polyreactivity”.

“QVQLVESGGGLVQAGGSLSLICAAYGTTFEYYAMRWYRQAPGKERELVATISIDGRTNYADSVKGRFTISRDNAKNTVYLQMISLKPEDTAVYYCAARPYWRHRYDYWGQGTQVTVSS”: the “polyreactivity (PSR sort gate)” value is listed as “low polyreactivity”.

For “QVQLVESGGGLVQAGGSLSLNCAASGFTFLQYPMGWYRQAPGKERELVATISSGGSTYYADSVKGRFTISPDNAKNTVYLQMNSLKPEDTAVYYCADTGYSSCTYYTHEYWGQGTQVTVSS”, the “polyreactivity (PSR sort gate)” value was “low polyreactivity”.

Turning to “QVQLVESGGGLVQAGGSLSLRCADSGRTLWAYAMGGYREAAGNDRELVAAISASGGSTYYADSVKGRFTISRDIAKNTVYLQMNSLKPADTAVYYCRLVSKGRLYDYCGQGTQVTVSS”, the “polyreactivity (PSR sort gate)” value is “high polyreactivity”.

As to “QVQLVESGGGLVQAGGSLSLSCAASGFIFRGYAMGWNRQAPGKEREFVAAISRRGGSTYYADSVKGRFTISRDNAKNTVYLQMNSLKPEDTAVYYCAARYSPVWHKYYYWGQGTEVTVSS”, the “polyreactivity (PSR sort gate)” value is “high polyreactivity”.

As to “QVQLVESGGGLVQAGGSLSLSCAASGFTFGSNDMGWYRQAPGKERELVAAIDGSGDTYYADSVKGRFTISRDNAKNTVYLQMNSLKPEDTAVYYCARDDNPIYSGVTYDYWGQGTQVTVSS”, the “polyreactivity (PSR sort gate)” value is “low polyreactivity”.

For the sequence “QVQLVESGGGLVQAGGSLSLSCAASGFTFGTYTMGWYRQAPRKEREFVAAISFSGTTTYYADSVKGRFTISRDNAKNTVYLQMNSLKPEDTAVYYCATRSPRKGVKGHFRYYYWGQGTQVTVSS”, the “polyreactivity (PSR sort gate)” value was “high polyreactivity”.

For “QVQLVESGGGLVQAGGSLSLSCAASGFTFYGNAIGGNRQAPGKERELVASISTYYADSVKGRFTISRDNAKNTVYLQMNSLKPEDTAVYYCAATHYDRTYYVIYDYWGQGTQVTVSS”, the “polyreactivity (PSR sort gate)” value is listed as “low polyreactivity”.

As for “QVQLVESGGGLVQAGGSLSLSCAASGFTFYYYAMGWYRQAPGKERELVAAISTRDGNTYYADSVKGRFTISRDNAKNTVYLQMNSLKPEDTAVYYCAADYFRYYPYDYWGQGTQVTVSS”, the “polyreactivity (PSR sort gate)” value is “low polyreactivity”.

On to “QVQLVESGGGLVQAGGSLSLSCAASGFTVYGYAMGWYRQAPGKERELVAAISRRSSSTYYADSVKGRFTISRDNAKNTVYLQMNSLKPEDTAVYYCNTVFQRTGYAAGVDYWGQGTQVTVSS”, for which the “polyreactivity (PSR sort gate)” value was “high polyreactivity”.

With “QVQLVESGGGLVQAGGSLSLSCAASGGTFLSNAMGWYRQAPGKERELVASISWGGGSTTYADSVKGRFTISRDNAKNTVYLQMNSLKPEDTAVYYCNALDGPGYYVDYDYWGQGTQVTVSS”, the “polyreactivity (PSR sort gate)” value is recorded as “low polyreactivity”.

As to “QVQLVESGGGLVQAGGSLSLSCAASGITFNIYVMGWYRQAPGKERELVAAITDSGGTTYYADSVKGRFTISRDNAKNTVYLQMNSLKPEDTAVYYCAAEPFYSWWWWGDYWGQGTQVTVSS”, the “polyreactivity (PSR sort gate)” value is “high polyreactivity”.

Regarding “QVQLVESGGGLVQAGGSLSLSCAASGITFVWYALGWYRQAPGTERELVAAISRGGSTYYADSVKGRFTISRDNAKNTVYLQMNSLKPEDTAVYYCNAESAARSTVQQARGYYWGQGTQVTVSS”, the “polyreactivity (PSR sort gate)” value is “high polyreactivity”.

On to “QVQLVESGGGLVQAGGSLSLSCAASGLNFVKNTMGWYRQAPGKETELVAGISQRGGSTYYADSEKGRFTISRDNAKNTVYLQMNSLKPEETAVYYCAAYSRTFEGHRGGYWGQGTQVTVSS”, for which the “polyreactivity (PSR sort gate)” value is “high polyreactivity”.

With “QVQLVESGGGLVQAGGSLSLSCAASGRIFDYYAMVWYRQAPGKERDLVAAISTSGGSTYYADSVKGRFTISRDNAKNTVYLQMISLKPVDTAVYYCAKDITVTYPGLDYDYWGQGTQVSVSS”, the “polyreactivity (PSR sort gate)” value is given as “low polyreactivity”.

On to “QVQLVESGGGLVQAGGSLSLSCAASGRIFGRNAMGWYRQAPGKERELVAAISSSGGTYYADSVKGRFTISRDNAKNTVYLQMISLKPEDTAVYYCNDRVRTQQRWVDYWGQGTQVTVSS”, for which the “polyreactivity (PSR sort gate)” value is given as “high polyreactivity”.

Take “QVQLVESGGGLVQAGGSLSLSCAASGRIFGRYAMGWYRQAPGTERVLVAVISSGGSKYYADSVKGRFTISRDNAKNTVYLQMNSLKPEDTAVYYCAAVNRRGYDYWGQGTQVTVSS”: the “polyreactivity (PSR sort gate)” value is “low polyreactivity”.

Turning to “QVQLVESGGGLVQAGGSLSLSCAASGRIFKSYAMGWYRQAPGKERELVAAIRSGGSTYYADSVKGRFTISRDNAKNTVYFQMNSLKPEDTAVYYCNRVTRTWKVTYHYWGQGTQVTVSS”, the “polyreactivity (PSR sort gate)” value is “high polyreactivity”.

On to “QVQLVESGGGLVQAGGSLSLSCAASGRIFNRNAMGWYRQAPGKEREFVAAISYSSGSTYYADSVKGRFTISRDNAKNTVYLQMNSLKPEDTAVYYCAAKVYNSRRNGYFGWTWGGYDYWGQGTQVTVSS”, for which the “polyreactivity (PSR sort gate)” value is on record as “high polyreactivity”.

Consider “QVQLVESGGGLVQAGGSLSLSCAASGRIFQPYAMGWYRQAPGKERELVARITSGGSTYADSVKGRFTISRDNAKNTVYLQMNSLKPEDTAVYYCAVRFPWYYRGYAYDYWGQGTQVTVSS”, for which the “polyreactivity (PSR sort gate)” value is “high polyreactivity”.

As to “QVQLVESGGGLVQAGGSLSLSCAASGRIFRRYAMGWYRQAPGKERELVAAISRGGSTYYADSVKGRFTISRDNAKNTVYLQMISLKPEDTAVYYCAAYSQSTSFGGYDSWGQGTQVTVSS”, the “polyreactivity (PSR sort gate)” value is listed as “high polyreactivity”.

As to “QVQLVESGGGLVQAGGSLSLSCAASGRIFRVYAMGWYRQAPGKERELVAAISSRGGRTYYADSVKGRFTISRDNAKNTVYLQMNSLKPEDTAVYYCAADGRSSSRATSRYDYWGQGTQVTVSS”, the “polyreactivity (PSR sort gate)” value is on record as “high polyreactivity”.

With “QVQLVESGGGLVQAGGSLSLSCAASGRIFYGYAMGWYRLAPGKERELVAAIRTSGGSTYYADSVKGRFTISRDNAKNTVYLQMNSLKPEDTAVYYCNAGIVPRNRYYTPYNYWGQGTQVTVSS”, the “polyreactivity (PSR sort gate)” value was “low polyreactivity”.

For “QVQLVESGGGLVQAGGSLSLSCAASGRIFYVNAMGWYRQAPGKERELVAAISRSGSSTYYADSVKGRFTISRDNAKNTVYLQMNSLKPEDTAVYYCAARYYGRSQHHFDYWGQGTQVTVSS”, the “polyreactivity (PSR sort gate)” value was “high polyreactivity”.

For “QVQLVESGGGLVQAGGSLSLSCAASGRIIGFNAMGWYRQAPGKERELVASIRTTGGSTRYADSVKGRFTISRDNAKNTVYLQMNSLKPEDTAVYYCAARWGKTLWQYNYWGQGTQVTVSS”, the “polyreactivity (PSR sort gate)” value is “high polyreactivity”.

On to “QVQLVESGGGLVQAGGSLSLSCAASGRILFRYGMGWYRQAPGKERELVARISWSGGNTHYADSVKGRFTISRDNAKNTVYLQMNSLKPEDTAVYYCNAYYTYWYPRYDYWGQGTQVTVSS”, for which the “polyreactivity (PSR sort gate)” value is given as “low polyreactivity”.

Take “QVQLVESGGGLVQAGGSLSLSCAASGRMFLRYAMGWYRQAPGKERELVAVITWSGGSTYYADSVKGRFTISRDNAKNTVYLQMNSLKPEDTAVYYCAADWYPTGFYYWGQGTQVTVSS”: the “polyreactivity (PSR sort gate)” value is on record as “low polyreactivity”.

As to “QVQLVESGGGLVQAGGSLSLSCAASGRSFRIYPMGWYRPAPGKERELVATITWRAGSTYYADSVKGRFTISRDNAKNTVYLLMNSLTPEDTAVYYFAAGRQYGGYRYDYWGQGTQVTVSS”, the “polyreactivity (PSR sort gate)” value was “high polyreactivity”.

Regarding “QVQLVESGGGLVQAGGSLSLSCAASGRTFGYYTMGWYRQAPGKERELVAAINWGGSRTYYADSVKGRFTISRDNAKNTVYLEMNSLKPEDTAVYYCAADVYRQWADDSWGLGTQVTVSS”, the “polyreactivity (PSR sort gate)” value is “high polyreactivity”.

As for “QVQLVESGGGLVQAGGSLSLSCAASGRTFVRYAMGWYRQAPGKERELVAAISRNAGRTYYADSVKGRFTISRDNAKNTVYLQMNSLKPEDTAVYYCAAPGRNLGTGFYYWGQGTQVTVSS”, the “polyreactivity (PSR sort gate)” value is “high polyreactivity”.

The values above are taken from the nanobody polyreactivity screen of Harvey et al. (2022).
